The results in this text go back to paper PMC6568020, “Elucidating the Hot Spot Residues of Quorum Sensing Peptidic Autoinducer PapR by Multiple Amino Acid Replacements” (Frontiers in Microbiology, 2019).

Where a SMILES comes first, the peptide text is derived from it. [ ]: non-standard residue; d: D form.

The target in assay [1] is PlcR of B. thuringiensis 407 Cry- (B. thuringiensis (endogenous in strain 407 Cry- plcA'Z)).
Assay [2] addresses PlcR of B. cereus ATCC 14579 (B. cereus (endogenous in strain ATCC 14579)).
Assay [3] has as its target PlcR of B. thuringiensis 407 Cry- (B. thuringiensis (endogenous in strain 407 Cry- plcA'Z)). This is another data set of the same source.
For assay [4], the target named is PlcR of B. cereus ATCC 14579 (B. cereus (endogenous in strain ATCC 14579)). This is another data set of the same source.
Assay [5] concerns the target PlcR of B. thuringiensis 407 Cry- (B. thuringiensis (endogenous in strain 407 Cry- plcA'Z)). The source holds these as a separate data set.
Assay [6] deals with PlcR regulon (plcA promoter-lacZ fusion). As to the kind of experiment: Competition studies of PapR7-derived peptides with endogenous PapR, β-galactosidase (lacZ reporter) assay. The assay is classed as cell-based, B. thuringiensis 407 Cry- plcA'Z (Bt A'Z). The following applies: Bt A'Z; for reduction of plcA'Z activity: 2.5 μM peptide, added at late-exponential phase (OD600 1.8 ± 0.1), normalized to untreated cells, mean. The procedure:
Bacterial strains used in this study: B. thuringiensis 407 Cry ^- plcA′Z (Bt A’Z) and the PapR null-mutant 407 Cry ^- ΔpapR plcA’Z (Bt ΔpapR A’Z) strains, containing a transcriptional fusion between the promoter of plcA and the lacZ reporter gene (as described previously; [Gominet et al., 2001]; [Slamti and Lereclus, 2002]); B. cereus strain ATCC 14579 ([Ivanova et al., 2003]). Unless otherwise noted, cells were grown in modified LB medium (16 g/L tryptone, 8 g/L yeast extract, 5 g/L NaCl) at 37°C and stored at −80°C in LB containing 25% glycerol. Kanamycin (200 μg/mL) was used for the selection of B. thuringiensis.
Bt A’Z cells were grown overnight in LB medium. The cells were diluted 10^–3 in modified LB to a final volume of 1 L and incubated at 37°C with shaking (200 rpm) until the end of the lag or late-exponential of bacterial growth (OD600 0.1 ± 0.03; 1.8 ± 0.1, respectively). Different concentrations of synthetic peptides were added to 2 ml aliquots of culture and incubated for various times (1–24 h) before centrifugation (Eppendorf centrifuge R5810, 4000 rpm for 5 min) and quantification of β-galactosidase activity.
β-galactosidase activity was measured as described previously ([Yang et al., 2017]), with minor modifications. Briefly, 200 μL aliquots from 2 ml treated cultures were added in triplicate to a clear 96-well microtiter plate, and then OD600 was measured and β-galactosidase activity was assayed. The final results were reported as percentage of activation, which is the ratio between the Miller units obtained after addition of the PapR7 analogs. In Bt ΔpapR A’Z strain, the plcA promoter activity was very low and considered as a baseline. In Bt A’Z strain, the untreated bacteria were considered as 100% of activation and the results were normalized accordingly. Each assay was repeated at least three times.

The next assay has as its system B. cereus ATCC 14579. The assay is classed as cell-based, Bacillus cereus. To be noted: n = 9. On the procedure:
Bt A’Z or B. cereus ATCC 14579 cells were grown overnight in LB medium. The cells were diluted 10^–3 in modified LB to a final volume of 1 liter and incubated at 37°C with shaking (200 rpm) until the end of the lag phase of bacterial growth (OD600 0.1 ± 0.03). Different concentrations of synthetic peptides were added to 2 ml aliquots of culture and incubated for 2.5 h before centrifugation (Eppendorf centrifuge R5810, 4000 rpm for 5 min), separation and filtration (0.2 μm filter) of the supernatants of the treated cultures. Analyses of hemolytic activity were conducted as previously described using human red blood cells ([Tal-Gan et al., 2013b]; [Lobel et al., 2015]). Bacterial supernatants were serially diluted in Tris-buffered saline (pH 7.2, 10 mM Tris–HCl, 155 mM NaCl) with 1% human red blood cells (hRBC) suspension and were incubated for 30 min at 37°C. Hemolytic activities were measured by monitoring the absorbance at 420 nm.

The molecule PapR7-dE6:dF7 (peptide) returned an IC50 of inhibition of plcA'Z (β-galactosidase) activity in Bt A'Z cells, lacZ-based reporter assay, late-exponential phase; the pair that is blocked: endogenous PapR with PlcR in assay [1] of 1.68 µM. In assay [2], this molecule displayed an IC50 of inhibition of the hemolytic activity (human red blood cells) of supernatants of treated B. cereus ATCC 14579 cultures; the pair that is blocked: native PapR with PlcR of 1.38 µM. The reduction of plcA'Z (β-galactosidase) activity in Bt A'Z cells, 2.5 μM peptide added at late-exponential phase; the pair that is blocked: endogenous PapR with PlcR in assay [3] was 71%.
In turn, PapR7-P4A:dF7 (peptide) yielded a reduction of plcA'Z (β-galactosidase) activity in Bt A'Z cells, 2.5 μM peptide added at late-exponential phase; the pair that is blocked: endogenous PapR with PlcR in assay [3] of 40%. The inhibition of the hemolytic activity (human red blood cells) of supernatants of B. cereus ATCC 14579 cultures treated with 10 μM peptide; the pair that is blocked: native PapR with PlcR in assay [4] was 83%.
For PapR7-E6A:dF7 (peptide), the reduction of plcA'Z (β-galactosidase) activity in Bt A'Z cells, 2.5 μM peptide added at late-exponential phase; the pair that is blocked: endogenous PapR with PlcR in assay [3] is 40%. The molecule further gave an inhibition of the hemolytic activity (human red blood cells) of supernatants of B. cereus ATCC 14579 cultures treated with 10 μM peptide; the pair that is blocked: native PapR with PlcR in assay [4] of 83%.
As for PapR7-P4A:dE6:F7A (peptide), the IC50 of inhibition of the hemolytic activity (human red blood cells) of supernatants of treated B. cereus ATCC 14579 cultures; the pair that is blocked: native PapR with PlcR in assay [2] is 1.99 µM. This molecule also showed a reduction of plcA'Z (β-galactosidase) activity in Bt A'Z cells, 2.5 μM peptide added at late-exponential phase; the pair that is blocked: endogenous PapR with PlcR in assay [3] of 40%. In addition, in assay [5], the reduction of plcA'Z (β-galactosidase) activity in Bt A'Z cells, 10 μM peptide added at end of lag phase (OD600 0.1); the pair that is blocked: endogenous PapR with PlcR amounted to 75%.
As to PapR7-dE6:F7A (peptide), in assay [1], the IC50 of inhibition of plcA'Z (β-galactosidase) activity in Bt A'Z cells, lacZ-based reporter assay, late-exponential phase; the pair that is blocked: endogenous PapR with PlcR was 2.57 µM. The molecule further had an IC50 of inhibition of the hemolytic activity (human red blood cells) of supernatants of treated B. cereus ATCC 14579 cultures; the pair that is blocked: native PapR with PlcR in assay [2] of 2.5 µM. The molecule further gave a reduction of plcA'Z (β-galactosidase) activity in Bt A'Z cells, 2.5 μM peptide added at late-exponential phase; the pair that is blocked: endogenous PapR with PlcR in assay [3] of 65%.
On to `CC(C)C[C@H](NC(=O)[C@H](CC(=O)O)NC(=O)[C@H](C)N)C(=O)N1CCC[C@H]1C(=O)N[C@@H](Cc1ccccc1)C(=O)N[C@@H](CCC(=O)O)C(=O)N[C@H](Cc1ccccc1)C(N)=O` [PapR7-dF7, reference compound] (H-ADLPFE[dF]-NH2; N-terminus assumed), for which the “reduction of plcA'Z activity” value in assay [6] (n = 9) amounted to 63%. Also, the IC50 in assay [6] (late-exponential phase (OD600 1.8 ± 0.1), competition with endogenous PapR, mean ± SEM, SEM, read-out: IC50, lacZ-based reporter assay) was 1.22 ± 0.072 µM; in the assay on B. cereus ATCC 14579 (supernatant of B. cereus ATCC 14579 cultures treated at OD600 0.1 ± 0.03 for 2.5 h, 1% human red blood cells, 30 min, 37°C, absorbance at 420 nm, mean ± SEM, SEM, read-out: IC50, hemolytic assay), 3.04 ± 0.206 µM.
As to PapR7-P4A:dE6:dF7 (peptide), the IC50 of inhibition of the hemolytic activity (human red blood cells) of supernatants of treated B. cereus ATCC 14579 cultures; the pair that is blocked: native PapR with PlcR in assay [2] was determined as 2.14 µM. Further, the reduction of plcA'Z (β-galactosidase) activity in Bt A'Z cells, 2.5 μM peptide added at late-exponential phase; the pair that is blocked: endogenous PapR with PlcR in assay [3] worked out at 40%. The molecule further had a reduction of plcA'Z (β-galactosidase) activity in Bt A'Z cells, 10 μM peptide added at end of lag phase (OD600 0.1); the pair that is blocked: endogenous PapR with PlcR in assay [5] of 75%.
Molecule PapR7-F7A (peptide) had an IC50 of inhibition of plcA'Z (β-galactosidase) activity in Bt A'Z cells, lacZ-based reporter assay; the pair that is blocked: endogenous PapR with PlcR in assay [1] of 1.68 µM. Besides, the IC50 of inhibition of the hemolytic activity (human red blood cells) of supernatants of treated B. cereus ATCC 14579 cultures; the pair that is blocked: native PapR with PlcR in assay [2] was determined as 2.73 µM. In addition, the reduction of plcA'Z (β-galactosidase) activity in Bt A'Z cells, 2.5 μM peptide added at late-exponential phase; the pair that is blocked: endogenous PapR with PlcR in assay [3] is 70%.
As for “ADLAFEA [PapR7-P4A:F7A, second-generation PapR7-derived peptide ADLAFEA]”, the “reduction of plcA'Z activity” value in assay [6] (n = 9) is recorded as “approximately 40%”. Besides, the “effect on plcA'Z activation at low cell density (in words)” value in assay [6] (10 μM peptide, added at OD600 0.1 ± 0.03, quantified after 2.5 h, n = 9) was “drastic reduction in plcA’Z activity”. Moreover, in assay [6] (plcA'lacZ, summary of the competition studies), the “class of inhibitory activity throughout the competition studies” value was “median to high inhibitory activities”. Besides, the “reduction of hemolytic activity” value in the assay on B. cereus ATCC 14579 (10 μM peptide, B. cereus ATCC 14579 treated at OD600 0.1 ± 0.03, human red blood cells, normalized to untreated) was roughly 60%.
The molecule PapR7-P4A:dE6 (peptide) displayed a reduction of plcA'Z (β-galactosidase) activity in Bt A'Z cells, 2.5 μM peptide added at late-exponential phase; the pair that is blocked: endogenous PapR with PlcR in assay [3] of 40%.

As a reminder, the IC50 is the midpoint of a concentration-inhibition curve.
